Experimental data published in patent US20160097084.

Experiments:
[1] = test system: T1, SAStide-Cy5 (Syk Artificial Substrate peptide conjugated with Cy5)
T1 sequence: GGDEEDYEEPDEPGGCGG

[2] = test system: T2, 5-FAM-SFAStide-A (Src-Family kinase Artificial Substrate peptide)
T2 sequence: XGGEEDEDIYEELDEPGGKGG

Syk-EGFP
ELISA-based chemifluorescence (anti-phosphotyrosine 4G10, HRP secondary, Amplex Red) of an in vitro kinase reaction [1]: the ELISA-based assay displayed increasing fluorescent signal over time for the appropriately match substrates

Syk-His6 (His6-tagged spleen tyrosine kinase)
TR-LRET emission (Cy5 fluorescence signal) over the time course of an in vitro kinase reaction [1]: TR-LRET emission spectra for each respective biosensor displayed an increase in the conjugated dye's fluorescence signal
TR-LRET emission (5-FAM fluorescence signal) in the in vitro kinase reaction with Syk only [2]: with minimal bleed through or background interference from the fluorophore attached to the other biosensor
